From the nanobody polyreactivity screen of Harvey et al. (2022)

Assay: yeast display, Sf9 membrane polyspecificity reagent, FACS + sequencing; frameworks hold sequencing errors
Outline: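 Galactose-induced (36–48 hours) yeast carrying a synthetic nanobody display library were exposed to 10% biotinylated, detergent-solubilized Sf9 membrane reagent at 4 °C for 1 hour. FACS followed streptavidin microbead enrichment, using low and high (top ~1%) gates for expression (anti-HA) and reagent binding (streptavidin). Colony PCR, MiSeq 2 × 250 sequencing and CDR-length filtering followed. Labels for polyreactivity reflect the gate of origin.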

QVQLVESGGGLVQAGGSLRLSCAASGFIFDYNVMGWYSQAPGKKGSWVAAISWSGGSTYYADSVKGRFTISRDNAKNTVYLEINSLKPEDTAVYYCSSRGTSTFRGTGRYDYWGQGTQVTVSS
polyreactivity (PSR sort gate): high polyreactivity

QVQLVESGGGLVQAGGSLRLSCAASGFIFDYSAMGWYRQAPGKERELVAAISHSGGTTYYADSVKGRFTISRDKAKNTVYLQMNSLKPEDTAVYYCNALYRKDFNSEYDYWGPGTQVTVSS
polyreactivity (PSR sort gate): high polyreactivity

QVQLVESGGGLVQAGGSLRLSCAASGFIFDYYGMGWYRQAPGKERELVAAITRGGSTYYADSVKGRFTISRDNAKNTVYLQMNSLKPEDTAFYYCAAKYVSQGYDYWGQGTQVTVSS
polyreactivity (PSR sort gate): high polyreactivity

QVQLVESGGGLVQAGGSLRLSCAASGFIFEAYTMGWSRQAPGKERELVASIDWDGGSTYYADSVKGRFTISRDNAKNTVYLQMNSLKPEDTAVYYCAADSRQYDELGDYDYWGQGTQVTVSS
polyreactivity (PSR sort gate): low polyreactivity

QVQLVESGGGLVQAGGSLRLSCAASGFIFENNAKGWYRQAPGKERELVAGITSGGGSTYYADSVKGRFTISRDNAKNTVYLQMNSLKPEDTAVYYFNKLYTRVGFTFEYWGQGTQVNVSS
polyreactivity (PSR sort gate): low polyreactivity

QVQLVESGGGLVQAGGSLRLSCAASGFIFERYAMGWYRKAPGKERELVAGIYSGGSTYYADSVKGRFTISRDNAKNTVYLQMNSLKPEDTAVYYCAAFRRQHIIYNYWGQGTQVTVSS
polyreactivity (PSR sort gate): high polyreactivity

QVQLVESGGGLVQAGGSLRLSCAASGFIFESNAMGWYRQAPGKERELVAAISKRGGSTYYADSVKGRFTISRDNAKNTVYLQMNSLKPEDTAVYYCNKARGYYHPGYQYGLDYWGQGTQVTVSS
polyreactivity (PSR sort gate): high polyreactivity

QVQLVESGGGLVQAGGSLRLSCAASGFIFEYNTMGWYRQAPGKERELVAAISRRGGSTYYADSVKGRFTISRDNAKNTVYLQMKSLKPEDTAVYYCATDPGARVHYPTGDYWGQGTQVTVSS
polyreactivity (PSR sort gate): high polyreactivity

QVQLVESGGGLVQAGGSLRLSCAASGFIFFDNAMGWYRHAPGKETELVAVISSSGTSTYYADSVKGRFTISRDNAKNTVYLQMNSLKPEDTAVYYCNATARTGVYLESDYWGQGTQVTVSS
polyreactivity (PSR sort gate): low polyreactivity

QVQLVESGGGLVQAGGSLRLSCAASGFIFFKYAMRWYRQAPGKEREFVAAISKSGTSTYYADSVKGRFTISRDNAKNTVYLQMNSLKPEDTAVYYCAARKDSYYYRSYDSWGQGTQVTVSS
polyreactivity (PSR sort gate): high polyreactivity

QVQLVESGGGLVQAGGSLRLSCAASGFIFFQYAMGWYRPAPGKERELVAAISGSGVTTYYADSVKGRFTISRDNAKNTVYLQMNSLKPDDTAVYYCNAGSVSDRQMDYWGQGTQVTVSS
polyreactivity (PSR sort gate): low polyreactivity

QVQLVESGGGLVQAGGSLRLSCAASGFIFFQYAMGWYRQAPGKERELVAAITARSGSTYYADSVKGRFTISRDNAKNTVYLQMNSLKPEDTAVYYCAARPRYYRWGPLDYWGQGTQVTVSS
polyreactivity (PSR sort gate): high polyreactivity

QVQLVESGGGLVQAGGSLRLSCAASGFIFFRYDMGWYRQAPGKERELVAVITSSGSTNYADSVKGRFTISRDNAKNTVYLQMNSLKPEDTAVYYCNARVSGVYRRRVNYWGEGTQVTVSS
polyreactivity (PSR sort gate): high polyreactivity

QVQLVESGGGLVQAGGSLRLSCAASGFIFFVNAMGWYRQAPGKEREFVATITGSGGSTYYADSVKGRFTISRDNAKNTVYLQMNSLKPEDTAVYYCAALGPYLDYGVQYGYWGQGTQVTVSS
polyreactivity (PSR sort gate): low polyreactivity

QVQLVESGGGLVQAGGSLRLSCAASGFIFFYAMGWYRQAPGKERELVASIDSGVSTDYADSVKGRFTISRDNAKNTDYLQMNSLKTEDTAVYYCAADYRAPLEYWGQGTQVTVSS
polyreactivity (PSR sort gate): low polyreactivity

QVQLVESGGGLVQAGGSLRLSCAASGFIFFYNAMGWYRQAPGKERELVADISSGGRTYYADSVKGRFTISRDNAKNTVYLQMNSLKPEDTAVYYCAAQSRYWVVRMDYWGQGTQVTVSS
polyreactivity (PSR sort gate): high polyreactivity

QVQLVESGGGLVQAGGSLRLSCAASGFIFGAYAMGWYRQAPGKERELVAAISRRGGSTYYADSVKGRFTISRDNAKNTVYLQMNSLKPEDTAVYYCAADISGSYYRPQYDYWGQGTQVTVSS
polyreactivity (PSR sort gate): low polyreactivity
